Laboratory results taken from patent US20240400715A1 (VIBRANT PHARMA, published 2024).
Positions count from the first letter of the chain named.

B1: 101 (Fab-Knob+CEA-Hole) (bispecific antibody, human IgG4 S228P, kappa, F234A L235A)
heavy: EVKLLESGGGLVQPKGSLKLSCAASGFTFNTYAMNWVRQAPGKGLEWVARIRSKYNNYATYYADSVKDRFTISRDDSQSILYLQMNNLKTEDTAMYYCVRHGNFGNSYVSWFAYWGQGTLVTVSSASTKGPSVFPLAPCSRSTSESTAALGCLVKDYFPEPVTVSWNSGALTSGVHTFPAVLQSSGLYSLSSVVTVPSSSLGTKTYTCNVDHKPSNTKVDKRVESKYGPPCPPCPAPEAAGGPSVFLFPPKPKDTLMISRTPEVTCVVVDVSQEDPEVQFNWYVDGVEVHNAKTKPREEQFNSTYRVVSVLTVLHQDWLNGKEYKCKVSNKGLPSSIEKTISKAKGQPREPQVYTLPPCQEEMTKNQVSLWCLVKGFYPSDIAVEWESNGQPENNYKTTPPVLDSDGSFFLYSRLTVDKSRWQEGNVFSCSVMHEALHNHYTQKSLSLSL
chain: EVQLVESGGGFVQAGESLTLSCTSSTLTFTPYRMAWYRQAPGKQRDLVADISSGDGRTTNYADFAKGRFTISRDNIKNTVFLRMTNLKPEDTAVYYCNTFVSFVGIARSWGQGTQVTVSSESKYGPPCPPCPAPEAAGGPSVFLFPPKPKDTLMISRTPEVTCVVVDVSQEDPEVQFNWYVDGVEVHNAKTKPREEQFNSTYRVVSVLTVLHQDWLNGKEYKCKVSNKGLPSSIEKTISKAKGQPREPQVCTLPPSQEEMTKNQVSLSCAVKGFYPSDIAVEWESNGQPENNYKTTPPVLDSDGSFFLVSRLTVDKSRWQEGNVFSCSVMHEALHNRFTQKSLSLSL
light: QAVVTQESALTTSPGETVTLTCRSSTGAVTTSNYANWVQEKPDHLFTGLIGGTNKRAPGVPARFSGSLIGDKAALTITGAQTEDEAIYFCALWYSNLWVFGGGTKVEIKRTVAAPSVFIFPPSDEQLKSGTASVVCLLNNFYPREAKVQWKVDNALQSGNSQESVTEQDSKDSTYSLSSTLTLSKADYEKHKVYACEVTHQGLSSPVTKSFNRGEC
notes: TA1 anti-CD3 Fab, C17 anti-CEA VHH, human IgG4 Fc knob-into-hole
B2: 102 (Fab-Knob-CEA+Hole) (bispecific antibody, human IgG4 S228P, kappa, F234A L235A)
heavy: EVKLLESGGGLVQPKGSLKLSCAASGFTFNTYAMNWVRQAPGKGLEWVARIRSKYNNYATYYADSVKDRFTISRDDSQSILYLQMNNLKTEDTAMYYCVRHGNFGNSYVSWFAYWGQGTLVTVSSASTKGPSVFPLAPCSRSTSESTAALGCLVKDYFPEPVTVSWNSGALTSGVHTFPAVLQSSGLYSLSSVVTVPSSSLGTKTYTCNVDHKPSNTKVDKRVESKYGPPCPPCPAPEAAGGPSVFLFPPKPKDTLMISRTPEVTCVVVDVSQEDPEVQFNWYVDGVEVHNAKTKPREEQFNSTYRVVSVLTVLHQDWLNGKEYKCKVSNKGLPSSIEKTISKAKGQPREPQVYTLPPCQEEMTKNQVSLWCLVKGFYPSDIAVEWESNGQPENNYKTTPPVLDSDGSFFLYSRLTVDKSRWQEGNVFSCSVMHEALHNHYTQKSLSLSLGGGGSGGGGSEVQLVESGGGFVQAGESLTLSCTSSTLTFTPYRMAWYRQAPGKQRDLVADISSGDGRTTNYADFAKGRFTISRDNIKNTVFLRMTNLKPEDTAVYYCNTFVSFVGIARSWGQGTQVTVSS
chain: ESKYGPPCPPCPAPEAAGGPSVFLFPPKPKDTLMISRTPEVTCVVVDVSQEDPEVQFNWYVDGVEVHNAKTKPREEQFNSTYRVVSVLTVLHQDWLNGKEYKCKVSNKGLPSSIEKTISKAKGQPREPQVCTLPPSQEEMTKNQVSLSCAVKGFYPSDIAVEWESNGQPENNYKTTPPVLDSDGSFFLVSRLTVDKSRWQEGNVFSCSVMHEALHNRFTQKSLSLSL
light: B1 light
notes: TA1 Fab, C17 VHH, IgG4 Fc KIH
B3: 104 (CEA-Knob+Fab-Hole) (bispecific antibody, human IgG4 S228P, kappa, F234A L235A)
chain: B1 chain with C251Y, S256C, S268W, A270L, V309Y, R337H, F338Y
heavy: B1 heavy with Y354C, C359S, W371S, L373A, Y412V, H440R, Y441F
light: B1 light
notes: TA1 Fab, C17 VHH, IgG4 Fc KIH
B4: 105 (Knob-CEA+Fab-Hole) (bispecific antibody, human IgG4 S228P, kappa, F234A L235A)
chain: ESKYGPPCPPCPAPEAAGGPSVFLFPPKPKDTLMISRTPEVTCVVVDVSQEDPEVQFNWYVDGVEVHNAKTKPREEQFNSTYRVVSVLTVLHQDWLNGKEYKCKVSNKGLPSSIEKTISKAKGQPREPQVYTLPPCQEEMTKNQVSLWCLVKGFYPSDIAVEWESNGQPENNYKTTPPVLDSDGSFFLYSRLTVDKSRWQEGNVFSCSVMHEALHNHYTQKSLSLSLGGGGSGGGGSEVQLVESGGGFVQAGESLTLSCTSSTLTFTPYRMAWYRQAPGKQRDLVADISSGDGRTTNYADFAKGRFTISRDNIKNTVFLRMTNLKPEDTAVYYCNTFVSFVGIARSWGQGTQVTVSS
heavy: B1 heavy with Y354C, C359S, W371S, L373A, Y412V, H440R, Y441F
light: B1 light
notes: TA1 Fab, C17 VHH, IgG4 Fc KIH
B5: 103 (Fab-Knob+Hole-CEA) (bispecific antibody, human IgG4 S228P, kappa, F234A L235A)
heavy: B1 heavy
chain: B4 chain with Y131C, C136S, W148S, L150A, Y189V, H217R, Y218F
light: B1 light
notes: TA1 Fab, C17 VHH, IgG4 Fc KIH
B6: 106 (Knob+Fab-Hole-CEA) (bispecific antibody, human IgG4 S228P, kappa, F234A L235A)
chain: B2 chain with C131Y, S136C, S148W, A150L, V189Y, R217H, F218Y
heavy: B2 heavy with Y354C, C359S, W371S, L373A, Y412V, H440R, Y441F
light: B1 light
notes: TA1 Fab, C17 VHH, IgG4 Fc KIH

The binders below were run against T1, human CD3ε/δ (ACRO systems, CDD-H52W1) (human, UniProt P07766 23-126; P04234 22-105) (assay: serum-stability ELISA, Day 1 vs Day 0).
T1 construct: bought recombinant heterodimer; also called human CD3 epsilon/delta; Human CD3ε/CD3δ
Protocol: (§1) The samples to be tested were centrifuged at 4° C. at 12000 rpm for 30 minutes to remove the precipitate. 200 μl of each sample to be tested (0.5 mg/ml) was collected in a 1.5 ml Eppendorf tube. An equal volume of human serum (GEMINI, H2OYOOK) was added, mixed thoroughly, and the mixture was incubated in a 37° C. constant temperature CO₂ incubator. For a total of 10 days, 40 μl samples was aspirated every day and stored at −20° C.
(§2) Enzyme-linked immunosorbent assay (ELISA) was used to test the bispecific antibodies' binding to human CEA and human CD3 epsilon/delta antigen. The steps are as follows: the antigen human CD3ε/δ (ACRO systems, CDD-H52W1) and the recombinant tumor antigen human CEA (CEACAM-5/CD66e, ACRO systems, CE5-H5226) were diluted to 1 μg/ml with PBS, and then added to the 96-well plate at 100 μl per well. The wells were coated overnight at 4° C. After washing 3 times with 0.05% PBST, 200 μl 5% skimmed milk powder was added to each well and incubated at 37° C. for 2 h. After washing 3 times with 0.05% PBST, 100 μl primary antibody sample (10 μg/ml) was added to each well, and incubated at 37° C. for 2 h. After washing 3 times with 0.05% PBST, 100 μl (1:6000) diluted secondary antibody goat anti-human Fc-HRP (sigma, A2170) was added to each well, incubated at room temperature for 1 h. After washing 8 times with 0.05% PBST, 50 μl TMB color developing solution was added to each well, and incubated at room temperature for 10-15 min. 50 μl 1 mM HCl was added to each well to stop the color development. 450 nm Absorbance (OD) was read.
(§3) The binding of antibodies to antigen was calculated according to the following formula: Binding (%)=[(ODdayn−ODb)/(ODday0−ODb)]×100%. ODdayn: experimental well (the protein was stored in the serum for n days); ODday0: control well (the protein was not stored in the serum); ODb: blank well (no primary antibody added).

Binding % [%] | Binder
98.5 | B1
106 | B2
107 | B3
103 | B4
101 | B5
111 | B6

What follows are binders tested against T1, human CD3ε/δ (ACRO systems, CDD-H52W1) (assay: serum-stability ELISA, Day 2 vs Day 0).
Protocol: as §1, §2, §3

Binding % [%] | Binder
101 | B1
111 | B2
110 | B3
106 | B4
106 | B5
115 | B6

These binders were tested against T1, human CD3ε/δ (ACRO systems, CDD-H52W1) (assay: serum-stability ELISA, Day 5 vs Day 0).
Protocol: as §1, §2, §3

Binding % [%] | Binder
99.2 | B1
108 | B2
104 | B3
107 | B4
105 | B5
116 | B6

Each binder was assayed against T1, human CD3ε/δ (ACRO systems, CDD-H52W1) (assay: serum-stability ELISA, Day 6 vs Day 0).
Protocol: as §1, §2, §3

Binding % [%] | Binder
103 | B1
110 | B2
104 | B3
104 | B4
105 | B5
122 | B6

These binders were tested against T1, human CD3ε/δ (ACRO systems, CDD-H52W1) (assay: serum-stability ELISA, Day 7 vs Day 0).
Protocol: as §1, §2, §3

Binding % [%] | Binder
100 | B1
105 | B2
103 | B3
101 | B4
107 | B5
118 | B6

The binders below were run against T1, human CD3ε/δ (ACRO systems, CDD-H52W1) (assay: serum-stability ELISA, Day 9 vs Day 0).
Protocol: as §1, §2, §3

Binding % [%] | Binder
102 | B1
100 | B2
108 | B3
105 | B4
103 | B5
112 | B6

Each binder was assayed against T1, human CD3ε/δ (ACRO systems, CDD-H52W1) (assay: serum-stability ELISA, Day 10 vs Day 0).
Protocol: as §1, §2, §3

Binding % [%] | Binder
101 | B1
102 | B2
107 | B3
99.2 | B4
100 | B5
106 | B6

These binders were tested against T1, human CD3ε/δ (ACRO systems, CDD-H52W1) (assay: serum-stability ELISA, Day 0 (reference)).
Protocol: as §1, §2, §3

Binding % [%] | Binder
100 | B1
100 | B2
100 | B3
100 | B4
100 | B5
100 | B6
